The target of data set [1] is T1, Photobacterium phosphoreum strain JT-ISH-467 β-galactoside-α2,3-sialyltransferase N2C0 (ISH467-N2C0), wild type, SEQ ID NO: 2, not containing His×6-Tag (Photobacterium phosphoreum, UniProt A5LHX0).
T1 sequence (A5LHX0 with tags, fused parts or gaps): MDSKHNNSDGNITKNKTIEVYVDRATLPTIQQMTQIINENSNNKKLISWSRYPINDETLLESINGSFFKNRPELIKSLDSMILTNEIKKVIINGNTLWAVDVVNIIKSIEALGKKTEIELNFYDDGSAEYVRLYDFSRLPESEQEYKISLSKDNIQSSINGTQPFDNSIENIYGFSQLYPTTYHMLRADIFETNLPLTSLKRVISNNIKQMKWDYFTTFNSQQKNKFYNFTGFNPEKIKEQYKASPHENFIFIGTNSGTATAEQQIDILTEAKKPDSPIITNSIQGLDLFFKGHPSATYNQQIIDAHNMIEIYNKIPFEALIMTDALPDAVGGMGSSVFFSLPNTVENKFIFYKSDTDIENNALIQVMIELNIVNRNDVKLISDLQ
The data set can be described thus: Sialyltransferase kinetics for lactose and CMP-sialic acid, wild-type N2C0 enzyme. The format is biochemical.

The target in data set [2] is T2, Photobacterium phosphoreum strain JT-ISH-467 β-galactoside-α2,3-sialyltransferase N2C0 variant F318AE319A (ISH467-N2C0-F318AE319A); Phe318 and Glu319 of SEQ ID N (Photobacterium phosphoreum, UniProt A5LHX0, E342A/F341A).
T2 sequence (A5LHX0 with tags, fused parts or gaps F341A/E342A): T1 sequence (A5LHX0 with tags, fused parts or gaps) with F318A, E319A
The data set can be described thus: Sialyltransferase kinetics for lactose and CMP-sialic acid, F318A E319A variant enzyme. It is filed as biochemical. The settings on record: not containing His×6-Tag. On the procedure:
The β-galactoside-α2,3-sialyltransferase activities of variant-type N2C0 proteins (four variants: F318A, E319A, F318AE319A, and S337A) each containing His×6-Tag purified in Example 1 (2) were measured. The sialyltransferase activity was measured by the method as described in J. Biochem., 120, 104-110, (1996) (hereby incorporated by reference in its entirety). […] The enzyme reaction was performed at 30° C. for 5 minutes. After the completion of the reaction, 1.97 mL of 5 mM phosphate buffer (pH 6.8) was added to the reaction solution, which was then applied to a Dowex 1×8 (PO4^3− form, 0.2×2 cm, manufactured by Bio-Rad Laboratories, Inc.) column. The reaction product contained in the eluate (0 to 2 mL) from this column, i.e., the radioactivity contained in sialyllactose was measured to calculate the enzyme activity. One enzyme unit (1 U) is defined as the amount of the enzyme required to release one micromole of sialic acid per minute.

Substrate in data set [3]: CC(=O)N[C@H]1[C@H]([C@H](O)[C@H](O)CO)O[C@](OP(=O)(O)OC[C@H]2O[C@@H](n3ccc(N)nc3=O)[C@H](O)[C@@H]2O)(C(=O)O)C[C@@H]1O
The data set can be described thus: purified protein, by the assay type. The conditions noted are these: not containing His×6-Tag, 30.0 °C.

Substrate in data set [4]: OC[C@H]1O[C@@H](O[C@H]2[C@H](O)[C@@H](O)C(O)O[C@@H]2CO)[C@H](O)[C@@H](O)[C@H]1O
Nature of the data set: purified protein, by the assay type. The conditions noted are these: not containing His×6-Tag, 30.0 °C.

Substrate in data set [5]: CC(=O)N[C@H]1[C@H]([C@H](O)[C@H](O)CO)O[C@](OP(=O)(O)OC[C@H]2O[C@@H](n3ccc(N)nc3=O)[C@H](O)[C@@H]2O)(C(=O)O)C[C@@H]1O
The data set can be described thus: purified protein, by the assay type. It is filed as biochemical, Photobacterium phosphoreum strain JT-ISH-467. The conditions noted are these: other: E319A variant enzyme, not containing His×6-Tag; 30.0 °C.

Substrate in data set [6]: OC[C@H]1O[C@@H](O[C@H]2[C@H](O)[C@@H](O)C(O)O[C@@H]2CO)[C@H](O)[C@@H](O)[C@H]1O
Nature of the data set: purified protein, by the assay type. It is filed as biochemical, Photobacterium phosphoreum strain JT-ISH-467. The conditions noted are these: other: E319A variant enzyme, not containing His×6-Tag; 30.0 °C.

Setting [7] is: other: wild-type N2C0 enzyme, pH 6.8.
Setting [8] is: other: F318A E319A variant enzyme.

Where a chain is given by its changes, count along the chain named. Names and notes keep the numbering of the source.

For `OC[C@H]1O[C@@H](O[C@H]2[C@H](O)[C@@H](O)C(O)O[C@@H]2CO)[C@H](O)[C@@H](O)[C@H]1O` (stereo partly drawn) [Lactose, lactose], in data set [1], the Vmax came to 3.9 nmol/min and the kcat was determined as 11.2 s⁻¹. Moreover, in data set [2], the Vmax is reported as 7.2 nmol/min and the kcat is 10.8 s⁻¹.
In the same order, the values of `CC(=O)N[C@H]1[C@H]([C@H](O)[C@H](O)CO)O[C@](OP(=O)(O)OC[C@H]2O[C@@H](n3ccc(N)nc3=O)[C@H](O)[C@@H]2O)(C(=O)O)C[C@@H]1O` [CMP-sialic acid, cytidine monophosphate (CMP)-sialic acid] are 7.3 nmol/min, 21.0 s⁻¹, 8.9 nmol/min and 13.3 s⁻¹.

B1: Photobacterium phosphoreum strain JT-ISH-467 β-galactoside-α2,3-sialyltransferase N2C0 (ISH467-N2C0), wild type, SEQ ID NO: 2, not containing His×6-Tag … (protein)
chain: T1 sequence (A5LHX0 with tags, fused parts or gaps)
Regarding B1, the Km is recorded as 0.72 mM in data set [3] (setting [7]) and 8.4 mM in data set [4] (setting [7]).

B2: Photobacterium phosphoreum strain JT-ISH-467 β-galactoside-α2,3-sialyltransferase N2C0 variant F318AE319A (ISH467-N2C0-F318AE319A; Phe318 and Glu319 of SEQ ID … (protein)
chain: T1 sequence (A5LHX0 with tags, fused parts or gaps) with F318A, E319A
In the case of B2, the Km in data set [3] (setting [8]) was 1.59 mM; in data set [4] (setting [8]), 85 mM.

B3: Photobacterium phosphoreum strain JT-ISH-467 β-galactoside-α2,3-sialyltransferase N2C0 variant E319A (ISH467-N2C0-E319A; Glu319 of SEQ ID NO: 2 replaced with … (protein)
chain: T1 sequence (A5LHX0 with tags, fused parts or gaps) with E319A
For B3, in data set [5], the Km is given as 0.53 mM, the Vmax turned out to be 3.2 nmol/min and the kcat amounted to 106.3 s⁻¹. Besides, in data set [6], the Km came out at 22 mM, the Vmax turned out to be 0.012 µmol/min and the kcat amounted to 99.7 s⁻¹.

The values are drawn from patent publication US20130122566A1, “NOVEL ENZYME PROTEIN, PROCESS FOR PRODUCTION OF THE ENZYME PROTEIN THE SAME, AND GENE ENCODING THE ENZYME PROTEIN THE SAME” (JAPAN TOBACCO INC., priority 2010, published 2013).
